Laboratory results as given in patent US20240262917A1, “ANTIBODIES AGAINST ALK AND METHODS OF USE THEREOF” (Dana-Farber Cancer Institute, Inc., priority 2021, published 2024).

Tests used:
MMP-9 = MMP-9 (Homo sapiens, UniProt P14780); settings: cited from earlier work
full-length ALK receptor = molecular target: T1, full-length ALK receptor (Homo sapiens, UniProt Q9UM73); test: Immunoprecipitation of ALK from neuroblastoma cell lysates; type: binding; settings: immunoblotting with commercial anti-ALK C-terminal antibody
T1 construct: endogenous in cells
T1 sequence (Q9UM73 19-1620): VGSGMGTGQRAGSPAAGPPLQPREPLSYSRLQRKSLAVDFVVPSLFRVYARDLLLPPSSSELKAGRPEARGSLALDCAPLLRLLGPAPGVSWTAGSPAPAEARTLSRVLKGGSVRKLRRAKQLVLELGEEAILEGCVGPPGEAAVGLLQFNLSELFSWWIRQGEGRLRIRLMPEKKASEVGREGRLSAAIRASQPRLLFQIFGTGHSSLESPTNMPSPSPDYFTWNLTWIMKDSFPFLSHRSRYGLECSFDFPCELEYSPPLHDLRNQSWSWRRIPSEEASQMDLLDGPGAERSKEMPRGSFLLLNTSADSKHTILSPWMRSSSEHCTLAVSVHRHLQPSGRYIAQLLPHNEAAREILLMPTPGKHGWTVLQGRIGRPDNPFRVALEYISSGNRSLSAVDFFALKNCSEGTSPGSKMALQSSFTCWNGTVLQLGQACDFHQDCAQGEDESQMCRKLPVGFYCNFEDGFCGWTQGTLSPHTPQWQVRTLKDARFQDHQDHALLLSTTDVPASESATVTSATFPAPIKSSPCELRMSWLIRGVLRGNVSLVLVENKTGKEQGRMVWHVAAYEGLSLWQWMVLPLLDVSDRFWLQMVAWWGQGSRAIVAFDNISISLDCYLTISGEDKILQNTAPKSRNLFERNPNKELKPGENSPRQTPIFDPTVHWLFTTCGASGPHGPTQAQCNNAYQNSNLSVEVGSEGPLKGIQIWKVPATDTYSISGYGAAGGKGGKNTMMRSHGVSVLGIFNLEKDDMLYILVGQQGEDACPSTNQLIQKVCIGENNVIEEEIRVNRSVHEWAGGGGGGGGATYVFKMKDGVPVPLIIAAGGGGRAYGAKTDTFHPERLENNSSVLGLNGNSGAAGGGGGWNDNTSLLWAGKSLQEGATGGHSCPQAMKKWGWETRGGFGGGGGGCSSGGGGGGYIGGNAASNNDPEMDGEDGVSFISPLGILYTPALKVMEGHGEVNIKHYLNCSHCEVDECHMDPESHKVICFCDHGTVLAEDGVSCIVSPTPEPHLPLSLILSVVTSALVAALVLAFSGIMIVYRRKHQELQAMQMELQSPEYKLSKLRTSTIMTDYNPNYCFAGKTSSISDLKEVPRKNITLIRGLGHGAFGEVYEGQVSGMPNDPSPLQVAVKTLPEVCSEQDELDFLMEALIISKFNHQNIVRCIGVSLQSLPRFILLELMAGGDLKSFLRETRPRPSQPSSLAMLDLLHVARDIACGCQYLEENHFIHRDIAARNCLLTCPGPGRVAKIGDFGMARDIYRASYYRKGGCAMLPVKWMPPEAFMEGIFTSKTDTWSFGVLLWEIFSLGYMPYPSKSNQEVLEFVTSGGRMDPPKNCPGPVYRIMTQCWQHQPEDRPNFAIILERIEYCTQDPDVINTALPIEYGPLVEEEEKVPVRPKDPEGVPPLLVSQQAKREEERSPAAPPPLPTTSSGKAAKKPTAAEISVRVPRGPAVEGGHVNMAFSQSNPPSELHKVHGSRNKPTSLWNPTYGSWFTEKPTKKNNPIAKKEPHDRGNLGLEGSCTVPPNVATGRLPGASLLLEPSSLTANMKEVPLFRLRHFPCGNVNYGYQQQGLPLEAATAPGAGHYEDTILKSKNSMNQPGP
Source text: Cell lysates from the indicated neuroblastoma cell lines were subjected to immunoprecipitation (IP) using 8G7 and subsequently to immunoblotting analysis using the commercial anti-ALK C-terminal antibody.

[1] = molecular target: T2, ALK extracellular fragment (Homo sapiens, UniProt Q9UM73); test: Sandwich ELISA of shed ALK ECD in patient sera; type: binding; settings: sera of patients with ALK-expressing neuroblastoma
T2 construct: conditioned media containing the shed ALK (ALK 1-654) ECD fragment; from tissue; host or cells: serum of neuroblastoma patients
T2 sequence (Q9UM73 19-654): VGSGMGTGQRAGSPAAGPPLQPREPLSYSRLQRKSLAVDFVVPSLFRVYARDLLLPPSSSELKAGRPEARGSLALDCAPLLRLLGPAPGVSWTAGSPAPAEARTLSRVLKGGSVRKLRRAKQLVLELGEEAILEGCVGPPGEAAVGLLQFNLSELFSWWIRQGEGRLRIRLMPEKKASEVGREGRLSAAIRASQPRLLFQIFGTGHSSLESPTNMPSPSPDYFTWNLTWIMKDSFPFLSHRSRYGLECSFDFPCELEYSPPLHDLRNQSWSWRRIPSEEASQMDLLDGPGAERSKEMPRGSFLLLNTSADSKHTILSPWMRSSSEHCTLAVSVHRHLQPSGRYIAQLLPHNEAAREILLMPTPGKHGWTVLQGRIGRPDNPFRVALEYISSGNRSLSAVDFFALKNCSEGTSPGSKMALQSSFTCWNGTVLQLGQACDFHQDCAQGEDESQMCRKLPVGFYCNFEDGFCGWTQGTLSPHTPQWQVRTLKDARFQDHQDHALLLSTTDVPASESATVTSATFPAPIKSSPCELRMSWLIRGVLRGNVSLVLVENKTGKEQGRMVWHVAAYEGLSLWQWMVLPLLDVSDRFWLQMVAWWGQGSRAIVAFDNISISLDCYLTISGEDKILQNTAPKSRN
Source text: Detection of the purified ALK-ECD protein using 8G7 (detection) and 7F7 (capture) anti-ALK antibodies by sandwich ELISA. (A) Standard curve showing the gradual increase in signal with increasing concentrations of the ALK-ECD protein in the media of NGP cells that express cleaved ALK. Quantification is shown below. (B) ELISA of the shed ALK ECD protein in sera from patients with neuroblastoma. Ample diluent buffer was used to dilute the serum samples, Media represents Dulbecco's Modified Eagle media in which human embryonic kidney 293T cells were grown, 293T media, conditioned media from 293T cells; ALK ECD 293T media, media collected from 293T cells in which the ALK-ECD-mFc protein was overexpressed.
We developed a sandwich ELISA technique where two ALK antibodies (for example, 5H3 or 7F7) can be used to capture the ALK extracellular fragment (antigen), and another antibody, such as the 8G7 antibody, can be used to detect the captured ALK extracellular fragment-5H3 or 7F7 complex. The different epitope binding sites of these antibodies on the ALK extracellular fragment protein allow for the development of the sandwich ELISA technique for the detection of the cleaved or shed ALK extracellular fragment in patient serum samples (FIG. 18). […]

ALK [2] = molecular target: T3, ALK (Homo sapiens, UniProt Q9UM73); test: Screening and subcloning of hybridomas (ELISA, FCM, functional assays); type: binding; set-up: The human ALK extracellular domain (19-682 aa) fused to the mouse Fc gene; made in house; host or cells: 293T cells; settings: after subcloning by limiting dilution
Experimental: HAT-selected fused cells were distributed in 96 well plates and the hybridoma supernatants were subjected to several rounds of screening. Initial screening was performed using ELISA against human Fc to test antigen binding with the ALK ECD-human Fc fusion protein. […] These were rescreened by FACS against Ba/F3 and neuroblastoma (NB) cells expressing ALK. From this screen, 22 positive hybridoma supernatants were tested in an antigen-binding capture ELISA assay and 11 were subsequently selected for further analysis. (A) Binding of hybridoma supernatants using an antigen-binding capture assay. The plate was coated with goat-anti-mouse IgG Fc, incubated with hybridoma supernatants, followed by ALK-HRP and visualized using an HRP substrate. (B) Binding of selected hybridoma supernatants to a human Fc antibody using ELISA screening. Plates were coated with the ALK ECD-human Fc fusion protein (ALK-hFc) together with an irrelevant hFc protein and visualized using an anti-mouse kappa light chain antibody. Only the supernatants with the highest binding are shown.
Supernatants from individual clones were then screened by ELISA and FACS analysis for ALK binding. Shown here is the viability of NGP neuroblastoma cells (expressing ALK) in the presence of anti-mouse IgG antibody in hybridoma clone supernatants. […]
Target sequence in this assay (Q9UM73 19-682): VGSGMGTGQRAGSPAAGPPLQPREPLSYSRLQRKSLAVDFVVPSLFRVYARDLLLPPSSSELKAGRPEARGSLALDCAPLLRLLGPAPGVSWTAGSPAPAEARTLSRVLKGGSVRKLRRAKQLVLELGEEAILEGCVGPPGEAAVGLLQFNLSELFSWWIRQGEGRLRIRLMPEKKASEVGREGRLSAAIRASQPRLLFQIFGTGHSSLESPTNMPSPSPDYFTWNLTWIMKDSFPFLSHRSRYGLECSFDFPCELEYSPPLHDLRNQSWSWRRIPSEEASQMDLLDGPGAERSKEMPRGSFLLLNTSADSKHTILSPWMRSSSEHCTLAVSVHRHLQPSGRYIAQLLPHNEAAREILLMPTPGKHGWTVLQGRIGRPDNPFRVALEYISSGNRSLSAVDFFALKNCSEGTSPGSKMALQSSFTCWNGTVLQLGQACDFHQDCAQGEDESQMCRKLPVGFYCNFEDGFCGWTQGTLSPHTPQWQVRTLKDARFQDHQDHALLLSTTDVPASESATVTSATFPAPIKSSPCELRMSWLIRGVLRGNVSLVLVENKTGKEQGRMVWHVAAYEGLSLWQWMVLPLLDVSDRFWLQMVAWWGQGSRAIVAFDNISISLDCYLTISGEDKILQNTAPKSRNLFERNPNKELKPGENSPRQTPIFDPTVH

ALK [3] = molecular target: T3, ALK; test: Western blot analysis of ALK in cell lysates and conditioned media; type: binding; set-up: endogenous in cells; host or cells: human neuroblastoma lines (NGP, SH-SY5Y, Kelly and others)
Source text: (§1) (A) Western blot analysis of ALK in Kelly and SHEP neuroblastoma cells overexpressing GFP and mutated ALK using the mAb-7 and 8G7 anti-ALK antibodies. The mAb-7 antibody was developed at the Vigny laboratory (INSERM, Unité 706/Université Pierre et Marie Curie, Paris F-75005, France) (Moog-Lutz et al, 2005; PMID: 15886198) and obtained through a Materials Transfer Agreement. (B) Western blot analysis of ALK expression in various non-neuroblastoma cell lines: H1373 (human […]), HeLa (cervical cancer), NIH-3T3 (transformed mouse fibroblast cells) using 8G7 and C26G7 (rabbit monoclonal C-terminal anti-ALK antibody; Cell Signaling Technology; Cat #3333; RRID:AB_836862) anti-ALK antibodies.
(§2) The three HPLC-purified monoclonal antibodies (5H3, 7F7 and 8G7) all of the IgG1 subtype, were tested for their ability to bind to ALK in neuroblastoma cells expressing ALK. Both cell lysates and supernatants from cells grown with and without serum (to increase the expression of ALK) were tested by western blotting. […] (A) Western blot analysis of the indicated hybridoma clones in neuroblastoma cell lines expressing WT (NGP) and mutated (SHSY5Y, Kelly) ALK. NIH3T3 cells were used as controls. (B) Western blot analysis of conditioned media from NGP neuroblastoma and 293T cells engineered to express the WT ALK receptor, with the three ALK mAbs showing binding with the shed ALK extracellular domain. […]
(§3) Cell lysates were prepared in NP-40 buffer (Invitrogen) containing complete protease inhibitor (Roche), phosphatase inhibitor (Roche) and phenylmethylsulfonyl fluoride (PMSF). Lysates were incubated on ice for 20 min and centrifuged at 16,000 g for 15 min at 4° C. Protein concentrations of the supernatants were determined with the DC protein assay kit (Bio-Rad). Protein samples were denatured using NuPAGE LDS sample buffer (Invitrogen) and NuPAGE sample reducing agent (Invitrogen). Proteins were then separated on precast 4-12% Bis-Tris gels (Invitrogen) and transferred to nitrocellulose membranes (Bio-Rad). After blocking in blocking buffer (5% dry milk in TBS with 0.2% Tween-20), membranes were incubated with the primary antibody overnight at 4 °C, washed three times with TBST buffer, chemiluminescent detection performed with the appropriate secondary antibodies and developed using Genemate Blue ultra-autoradiography film (VWR).

ALK [4] = test: as above; type: binding, human
Source text: as §1, §2
as §3, with “After blocking in blocking buffer (5% dry milk in TBS with 0.2% Tween-20), membranes were incubated with the primary antibody overnight at 4 °C, washed three times with TBST buffer, chemiluminescent detection performed with the appropriate secondary antibodies and developed using Genemate Blue ultra-autoradiography film (VWR).” left out

Sequence of MMP-9 (P14780 94-707): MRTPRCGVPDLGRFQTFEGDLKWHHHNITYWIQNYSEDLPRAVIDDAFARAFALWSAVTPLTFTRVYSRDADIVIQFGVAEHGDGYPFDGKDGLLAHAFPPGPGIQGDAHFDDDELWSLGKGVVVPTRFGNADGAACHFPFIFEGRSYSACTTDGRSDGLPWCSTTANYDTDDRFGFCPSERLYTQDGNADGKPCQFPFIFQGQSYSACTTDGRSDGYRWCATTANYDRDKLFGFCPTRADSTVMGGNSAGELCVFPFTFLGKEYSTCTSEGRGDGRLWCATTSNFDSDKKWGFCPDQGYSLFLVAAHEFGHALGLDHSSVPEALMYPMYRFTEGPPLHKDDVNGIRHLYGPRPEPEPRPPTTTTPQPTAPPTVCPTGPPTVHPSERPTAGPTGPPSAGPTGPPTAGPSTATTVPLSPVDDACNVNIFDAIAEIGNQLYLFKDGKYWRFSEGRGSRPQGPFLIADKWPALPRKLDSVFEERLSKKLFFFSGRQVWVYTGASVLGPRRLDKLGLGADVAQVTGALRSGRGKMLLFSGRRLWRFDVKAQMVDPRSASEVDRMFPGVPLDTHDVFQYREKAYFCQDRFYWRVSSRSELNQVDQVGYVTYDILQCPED

Molecule	clinical activity (MMP-9; combined with standard chemotherapy, gastric and gastroesophageal junction adenocarcinoma)	target engagement and dose-limiting toxicity (MMP-9; patients with gastric and gastroesophageal junction adenocarcinoma)	immunoprecipitation of ALK (full-length ALK receptor)	recognition of circulating ALK extracellular fragment in sera [1]	ALK specificity of the clone's monoclonal antibody (ALK [2])	ALK protein recognized by western blotting in cell lysates (ALK [3]; cell lysates of neuroblastoma cells expressing ALK)	ALK protein recognized by western blotting in media (ALK [3]; conditioned media of NB cells, shed ECD domain)	recognition of ALK in immunoblotting assays (ALK [4])
andecaliximab: selective MMP-9 antibody (Gilead) (antibody, chains of the INN, looked up, V domains shown) VH: QVQLQESGPGLVKPSETLSLTCTVSGFSLLSYGVHWVRQPPGKGLEWLGVIWTGGTTNYNSALMSRFTISKDDSKNTVYLKMNSLKTEDTAIYYCARYYYGMDYWGQGTLVTVSS VL: DIQMTQSPSSLSASVGDRVTITCKASQDVRNTVAWYQQKPGKAPKLLIYSSSYRNTGVPDRFSGSGSGTDFTLTISSLQAEDVAVYYCQQHYITPYTFGGGTKVEIK	showed activity when combined with standard chemotherapy	achieved target engagement without dose-limiting toxicity	–	–	–	–	–	–
5H3: murine monoclonal IgG1 anti-ALK antibody; VH SEQ ID NO: 13, VL SEQ ID NO: 14 (antibody) heavy: MEWSWVFLFLLSVIAGVQSQVQLQQSGAELVRPGASVTLSCKASGYTFTDYEMHWVKQTPVHGLEWIGAIDPETGGSAYNQKFKAKAILTADRSSSTAYMELRSLTSEDSAVYYCTRTRYYGSSPAMDYWGQGTSVTVSSAKTTPPSVYPLAPGSAAQTNSMVTLGCLVKGYFPEPVTVTWNSGSLSSGVHTFPAVLQSDLYTLSSSVTVPSS light: MSSAQFLGLLLLCFQGTRCDIQMTQTTSSLSASLGDRVTISCSASQGIGNYLNWYQQKPDGTVKLLIYYTSSLHSGVPSRFSGSGSGTDYSLTISNLEPEDIATYYCQQYSKLPYTFGGGTKLEIKRADAAPTVSIFPPSSEQLTSGGASVVCFLNNFYPKDINVKWKIDGSERQNGVLNSWTDQDSKDSTYSMSSTLTLTK	–	–	can immunoprecipitate ALK	recognize the circulating ALK extracellular fragment in the sera of patients with ALK-expressing neuroblastoma	high ALK specificity	recognized a 220 kDa protein in the cell lysates of neuroblastoma cells	an approximately 100 kDa protein in the media	recognize ALK in immunoblotting assays
